Data on 5 molecules can be found in patent publication US20160108097A1 (UNITED STATES OF AMERICA AS REPRESENTED BY THE SECRETARY …, published 2016).

Assay [1] addresses GRFT-resistant envelope Du156R18 (R). In words: cell-based or functional assay.
In assay [2] the target is GRFT-resistant envelope Du179 GRFT c17 (R). The experiment in a line: cell-based or functional assay.
Assay [3] concerns the target HIV envelope glycoprotein gp120 (HIV). The experiment in a line: ITC.
The target is the same in assay [4]. In words: ITC, 30 °C, tandemer (180 µM) titrated into gp120 (2.5 µM). (In general: In ITC the heat of successive injections is recorded.)
The target of assay [5] is HIV-1 subtype C envelope CAP206.8 (HIV-1 subtype C). The experiment in a line: cell-based or functional assay.
For assay [6], the target named is HIV-1 subtype C envelope Du179.14 (HIV-1 subtype C). In words: cell-based or functional assay.
In assay [7] the target is HIV-1 subtype A envelope Q23.17 (HIV-1 subtype A). The experiment in a line: cell-based or functional assay.
In assay [8] the target is HIV-1 subtype C envelope DU151.2 (HIV-1 subtype C). The experiment in a line: cell-based or functional assay.
The target of assay [9] is HIV-1 subtype B envelope JR-FL (HIV-1 subtype B). In words: cell-based or functional assay.
For assay [10], the target named is HIV-1 subtype C envelope COT6.15 (HIV-1 subtype C). In words: cell-based or functional assay.
Assay [11] has as its target HIV-1 subtype B envelope CAAN5342.A2 (HIV-1 subtype B). The experiment in a line: cell-based or functional assay.
Assay [12] concerns the target HIV-1 subtype A envelope Q168.a2 (HIV-1 subtype A). In words: cell-based or functional assay.
The target of assay [13] is HIV-1 subtype B envelope QH0692.42 (HIV-1 subtype B). In words: cell-based or functional assay.
Assay [14] concerns the target HIV-1 subtype C envelope Du156.12 (HIV-1 subtype C). The experiment in a line: cell-based or functional assay.
The target in assay [15] is HIV-1 subtype B envelope PVO.4 (HIV-1 subtype B). The experiment in a line: cell-based or functional assay.
Assay [16] concerns the target Env of HIV-1RF virus (HIV-1 RF). The experiment in a line: cell-based or functional assay.
The target of assay [17] is HIV envelope glycoprotein gp120 (HIV). In words: ITC, 30 °C, lectin titrated into gp120.

B1: 2mGRFT^long (2mG3) (mGRFT-GlyThrGlyGlyThrGlyGlyThrGly-mGRFT) (designed binder)
chain: SSTHRKFGGSGGSPFSGSGLSSIAVRSGSYLDAIIIDGVHHGGSGGNLSPTFTFGSGEYISNMTIRSGDYIDNISFETNMGRRFGPYGGSGGSANTLSNVKVIQINGSAGDYLDSLDIYYEQYGTGGTGGTGSSTHRKFGGSGGSPFSGSGLSSIAVRSGSYLDAIIIDGVHHGGSGGNLSPTFTFGSGEYISNMTIRSGDYIDNISFETNMGRRFGPYGGSGGSANTLSNVKVIQINGSAGDYLDSLDIYYEQY
notes: also called 2mGRFT3; 2mrG3
As to B1, the “IC50 (pseudovirus neutralization, JC53bl-13 cells)” value (from here on “IC50”) in [1] turned out to be 26 nM; in assay [2], 34.4 nM; in assay [5], 0.696 nM; in assay [6], 0.144 nM; in [7], 7.16 nM; in [8] it was 1.7 nM. Further, the “IC50” value in [9] was 5.77 nM; in assay [10], 2.52 nM; in assay [11] it was 16.9 nM; in assay [12], 5.28 nM; in assay [13], 0.513 nM; in [14], 0.0616 nM. The “IC50” value in [15] is 0.558 nM. Moreover, in [1], the “fold reduction in activity between the WT (Du156.12) and R viruses” value (from here on “fold reduction … (Du156.12) and R viruses”) amounted to 422 fold. Further, the “fold reduction in activity between the WT (Du179.14) and R viruses” value (from here on “fold reduction … (Du179.14) and R viruses”) in [2] turned out to be 239 fold. For the same molecule, the “enthalpy/entropy compensation (ΔH/ΔS) ratio” value in assay [3] is 1.33. Further, binding in [4] was characterised by a dissociation constant (Kd) of 3 nM. In assay [4], this molecule had a TΔS of -35.4 kcal/mol. In assay [4], the ΔG was -11.8 kcal/mol. In assay [4], the ΔH is -47.2 kcal/mol. For the same molecule, in [16], the “Anti-HIV EC50 (XTT cytopathicity assay, HIV-1RF, CEM-SS cells)” value (from here on “Anti-HIV EC50”) came to 2.6 pM.

B2: 3mGRFT (3mG) (mGRFT-GlyThrGly-mGRFT-GlyThrGly-mGRFT) (designed binder)
chain: SSTHRKFGGSGGSPFSGSGLSSIAVRSGSYLDAIIIDGVHHGGSGGNLSPTFTFGSGEYISNMTIRSGDYIDNISFETNMGRRFGPYGGSGGSANTLSNVKVIQINGSAGDYLDSLDIYYEQYGTGSSTHRKFGGSGGSPFSGSGLSSIAVRSGSYLDAIIIDGVHHGGSGGNLSPTFTFGSGEYISNMTIRSGDYIDNISFETNMGRRFGPYGGSGGSANTLSNVKVIQINGSAGDYLDSLDIYYEQYGTGSSTHRKFGGSGGSPFSGSGLSSIAVRSGSYLDAIIIDGVHHGGSGGNLSPTFTFGSGEYISNMTIRSGDYIDNISFETNMGRRFGPYGGSGGSANTLSNVKVIQINGSAGDYLDSLDIYYEQY
Consider B2, for which the “IC50” value was determined as 1.11 nM in assay [1]; 3.86 nM in assay [2]; 0.181 nM in assay [5]; 0.124 nM in assay [6]; 0.462 nM in [7]; 0.308 nM in assay [8]. The “IC50” value in assay [9] amounted to 0.325 nM; in assay [10], 0.412 nM; in assay [11], 0.326 nM; in assay [12], 0.331 nM; in assay [13], 0.223 nM; in assay [14], 0.0794 nM. Further, the “IC50” value in assay [15] is 0.27 nM. The “fold reduction … (Du156.12) and R viruses” value in assay [1] worked out at 14 fold. For the same molecule, in assay [2], the “fold reduction … (Du179.14) and R viruses” value stood at 31 fold. Moreover, the “enthalpy/entropy compensation (ΔH/ΔS) ratio” value in assay [3] stood at 1.19. The same molecule came in with an equilibrium dissociation constant (Kd) in assay [4] of 3 nM. The TΔS in assay [4] was -62.7 kcal/mol. Further, the ΔG in [4] is -11.8 kcal/mol. The same molecule registered a ΔH in assay [4] of -74.4 kcal/mol. In assay [16], the “Anti-HIV EC50” value turned out to be 1 pM.

B3: 4mGRFT (4mG) (mGRFT-GlyThrGly-mGRFT-GlyThrGly-mGRFT-GlyThrGly-mGRFT) (designed binder)
chain: SSTHRKFGGSGGSPFSGSGLSSIAVRSGSYLDAIIIDGVHHGGSGGNLSPTFTFGSGEYISNMTIRSGDYIDNISFETNMGRRFGPYGGSGGSANTLSNVKVIQINGSAGDYLDSLDIYYEQYGTGSSTHRKFGGSGGSPFSGSGLSSIAVRSGSYLDAIIIDGVHHGGSGGNLSPTFTFGSGEYISNMTIRSGDYIDNISFETNMGRRFGPYGGSGGSANTLSNVKVIQINGSAGDYLDSLDIYYEQYGTGSSTHRKFGGSGGSPFSGSGLSSIAVRSGSYLDAIIIDGVHHGGSGGNLSPTFTFGSGEYISNMTIRSGDYIDNISFETNMGRRFGPYGGSGGSANTLSNVKVIQINGSAGDYLDSLDIYYEQYGTGSSTHRKFGGSGGSPFSGSGLSSIAVRSGSYLDAIIIDGVHHGGSGGNLSPTFTFGSGEYISNMTIRSGDYIDNISFETNMGRRFGPYGGSGGSANTLSNVKVIQINGSAGDYLDSLDIYYEQY
B3: the “IC50” value in [1] worked out at 0.688 nM; in assay [2], 2.08 nM; in assay [5], 0.164 nM; in assay [6], 0.0934 nM; in assay [7] it was 0.276 nM; in assay [8] it was 0.3 nM. For the same molecule, the “IC50” value in assay [9] is 0.287 nM; in assay [10], 0.273 nM; in assay [11], 0.232 nM; in assay [12], 0.273 nM; in assay [13] it was 0.17 nM; in assay [14], 0.0887 nM. In addition, the “IC50” value in assay [15] was found to be 0.185 nM. For the same molecule, the “fold reduction … (Du156.12) and R viruses” value in [1] was 8 fold. The “fold reduction … (Du179.14) and R viruses” value in [2] worked out at 22 fold. Also, the “Anti-HIV EC50” value in assay [16] was 1.2 pM.

B4: 2mGRFT (2mG) (mGRFT-GlyThrGly-mGRFT) (designed binder)
chain: SSTHRKFGGSGGSPFSGSGLSSIAVRSGSYLDAIIIDGVHHGGSGGNLSPTFTFGSGEYISNMTIRSGDYIDNISFETNMGRRFGPYGGSGGSANTLSNVKVIQINGSAGDYLDSLDIYYEQYGTGSSTHRKFGGSGGSPFSGSGLSSIAVRSGSYLDAIIIDGVHHGGSGGNLSPTFTFGSGEYISNMTIRSGDYIDNISFETNMGRRFGPYGGSGGSANTLSNVKVIQINGSAGDYLDSLDIYYEQY
For B4, the “IC50” value was determined as 27.1 nM in assay [1]; 36 nM in assay [2]; 0.178 nM in [5]; 0.158 nM in assay [6]; 7.26 nM in [7]; 0.694 nM in assay [8]. The “IC50” value was determined as 2.09 nM in [9]; 1.46 nM in assay [10]; 5.27 nM in [11]; 1.55 nM in assay [12]; 0.202 nM in [13]; 0.0182 nM in assay [14]. For the same molecule, the “IC50” value in [15] is 0.301 nM. The “fold reduction … (Du156.12) and R viruses” value in assay [1] was 1490 fold. In addition, the “fold reduction … (Du179.14) and R viruses” value in assay [2] was 228 fold. The “enthalpy/entropy compensation (ΔH/ΔS) ratio” value in [3] came out at 1.16. In assay [4], this molecule displayed a Kd of 5 nM. This molecule came in with a TΔS in [4] of -59.9 kcal/mol. In assay [4], this molecule returned a ΔG of -11.6 kcal/mol. In [4], this molecule registered a ΔH of -69.6 kcal/mol. In addition, the “Anti-HIV EC50” value in assay [16] came to 2.7 pM.

B5: monomeric griffithsin mGRFT (1GS-S, PDB ID 3LL2) (designed binder)
chain: SSTHRKFGGSGGSPFSGSGLSSIAVRSGSYLDAIIIDGVHHGGSGGNLSPTFTFGSGEYISNMTIRSGDYIDNISFETNMGRRFGPYGGSGGSANTLSNVKVIQINGSAGDYLDSLDIYYEQY
notes: also called IGS-S; GRFT monomer
Regarding B5, the “Anti-HIV EC50” value in [16] was 119000 pM. In assay [17], this molecule showed a dissociation constant Kd of 112 nM, a TΔS of -26 kcal/mol, a ΔG of -9.47 kcal/mol and a ΔH of -35.5 kcal/mol.

The Kd is the constant that tells how readily two partners part at equilibrium. Low values mean a tighter complex, high ones a looser complex.
